Reference: patent KR20160093502A (dated 2016)
Blank lines part the entries; values can stand above or below the binder they belong to.

Molecular target: T1, EPRS (glutamyl-prolyl tRNA synthetase), human 세포에서 원래 발현된 EPRS (Hela cell lysate) (human, UniProt P07814 1-1512)
T1 construct: Endogenous protein in 50 ug HeLa lysate, denatured on a western blot; also called endogenous EPRS in HeLa cell lysate
Test: western blot on HeLa cell lysate (clones from panning on EPRS WHEP domain antigen)

T1 sequence (P07814 whole entry): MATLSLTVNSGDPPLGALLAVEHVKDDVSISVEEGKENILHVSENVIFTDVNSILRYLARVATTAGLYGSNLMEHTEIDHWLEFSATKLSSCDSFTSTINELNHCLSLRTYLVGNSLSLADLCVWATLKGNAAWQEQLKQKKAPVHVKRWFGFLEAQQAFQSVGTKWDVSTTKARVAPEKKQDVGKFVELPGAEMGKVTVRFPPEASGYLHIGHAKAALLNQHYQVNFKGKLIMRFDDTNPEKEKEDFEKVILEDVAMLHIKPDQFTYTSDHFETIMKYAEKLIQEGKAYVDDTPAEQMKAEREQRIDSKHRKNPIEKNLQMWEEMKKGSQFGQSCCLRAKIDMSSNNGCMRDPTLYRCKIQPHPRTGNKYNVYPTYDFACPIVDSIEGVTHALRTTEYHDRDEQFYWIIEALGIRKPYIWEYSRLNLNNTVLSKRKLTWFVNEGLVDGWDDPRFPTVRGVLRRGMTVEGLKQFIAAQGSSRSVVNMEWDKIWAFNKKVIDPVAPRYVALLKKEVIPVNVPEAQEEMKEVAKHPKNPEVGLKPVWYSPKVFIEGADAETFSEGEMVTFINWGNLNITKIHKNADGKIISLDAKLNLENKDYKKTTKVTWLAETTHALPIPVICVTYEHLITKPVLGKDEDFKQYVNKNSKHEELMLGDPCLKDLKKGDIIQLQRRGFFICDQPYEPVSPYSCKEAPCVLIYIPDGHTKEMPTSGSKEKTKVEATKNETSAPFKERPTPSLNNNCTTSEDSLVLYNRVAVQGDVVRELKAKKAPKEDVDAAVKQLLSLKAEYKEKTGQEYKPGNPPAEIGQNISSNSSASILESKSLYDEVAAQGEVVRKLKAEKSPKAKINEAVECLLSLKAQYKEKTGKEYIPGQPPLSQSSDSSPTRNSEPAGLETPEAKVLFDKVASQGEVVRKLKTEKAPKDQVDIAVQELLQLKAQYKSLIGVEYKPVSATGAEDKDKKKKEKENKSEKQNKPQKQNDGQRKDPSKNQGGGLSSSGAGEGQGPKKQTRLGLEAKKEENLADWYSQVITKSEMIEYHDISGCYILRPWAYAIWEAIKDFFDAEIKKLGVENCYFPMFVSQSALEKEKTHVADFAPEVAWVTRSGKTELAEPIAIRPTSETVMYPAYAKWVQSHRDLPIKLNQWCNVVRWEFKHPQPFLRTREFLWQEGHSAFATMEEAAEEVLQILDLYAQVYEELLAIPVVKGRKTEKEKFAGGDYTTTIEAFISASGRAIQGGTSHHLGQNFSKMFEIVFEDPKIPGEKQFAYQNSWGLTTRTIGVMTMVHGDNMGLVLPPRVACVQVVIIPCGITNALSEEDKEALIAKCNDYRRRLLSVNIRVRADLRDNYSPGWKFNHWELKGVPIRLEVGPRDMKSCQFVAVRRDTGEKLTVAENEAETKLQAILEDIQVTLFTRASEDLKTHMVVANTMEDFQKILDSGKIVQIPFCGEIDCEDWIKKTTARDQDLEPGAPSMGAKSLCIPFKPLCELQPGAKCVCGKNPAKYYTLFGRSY

binding result: binds
B1: SEQ ID NO 42 (scFv)
scFv: EVQLLESGGGLVQPGGSLRLSCAVSGFTFSSYYMSWVRQAPGKGLEWVSLISPGSGSIYYADSVKGRFTISRDNSKNTLYLQMNSLRAEDTAVYYCARTGWLFDYWGQGTLVTVNSGGGGSGGGGSGGGGSQSVLTQPPSASGTPGQRVTISCSGSSSNIGNNAVNWYQQLPGTAPKLLIYSNSHRPSGVPDRFSGSKSGTSASLAISGLRSEDEADYYCGSWDASLNGYVFGGGTKLTVL

binding result: binds
B2: SEQ ID NO 28 (scFv)
scFv: EVQLLESGGGLVQPGGSLRLSCAASGFTFSNYAMSWVRQAPGKGLEWVSGIYHGGGNKYYADSVKGRFTISRDNSKNTLYLQMNSLRAEDTAVYYCARTRTLFDYWGQGTLVTVSSGGGGSGGGGSGGGGSQSVLTQPPSASGTPGQRVTISCTGSSSNIGNNAVSWYQQLPGTAPKLLIYANSHRPSGVPDRFSGSKSGTSASLAISGLRSEDEADYYCGTWDASLSGYVFGGGTKLTVL
